Source: patent US20240093158A1 (ARIZONA BOARD OF REGENTS ON BEHALF OF ARIZONA STATE …, published 2024)

Biological target: T1, CD16 on human natural killer (NK) cells (human, UniProt P08637 17-254)
T1 construct: whole, on cells
Assay: flow cytometry on human NK cells, BiKE-containing supernatant, PE anti-V5 detection

T1 sequence (P08637 17-254): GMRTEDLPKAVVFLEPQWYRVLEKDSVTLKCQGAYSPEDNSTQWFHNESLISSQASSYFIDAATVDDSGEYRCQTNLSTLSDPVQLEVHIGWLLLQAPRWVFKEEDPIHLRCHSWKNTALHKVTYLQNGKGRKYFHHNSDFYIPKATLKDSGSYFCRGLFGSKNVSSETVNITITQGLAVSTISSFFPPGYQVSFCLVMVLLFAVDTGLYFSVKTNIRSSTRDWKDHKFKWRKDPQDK

B1: Bi-specific Natural Killer and Neutrophil engager (BiKE), CD138-CD16, secreted from MYXV-BiKE-infected cells, with C-terminal V5 tag (bispecific antibody)
chain: DIQMTQSTSSLSASLGDRVTISCSASQGINNYLNWYQQKPDGTVELLIYYTSTLQSGVPSRFSGSGSGTDYSLTISNLEPEDIGTYYCQQYSKLPRTFGGGTKLEIKGGGGSGGGGSGGGGSSQVQLQQSGSELMMPGASVKISCKATGYTFSNYWIEWVKQRPGHGLEWIGEILPGTGRTIYNEKFKGKATFTADISSNTVQMQLSSLTSEDSAVYYCARRDYYGNFYYAMDYWGQGTSVTVSSGGGGSGGGGSQVTLKESGPGILQPSQTLSLTCSFSGFSLRTSGMGVGWIRQPSGKGLEWLAHIWWDDDKRYNPALKSRLTISKDTSSNQVFLKIASVDTADTATYYCAQINPAWFAYWGQGTLVTVSAGGGGSGGGGSGGGGSDTVLTQSPASLAVSLGQRATISCKASQSVDFDGDSFMNWYQQKPGQPPKLLIYTTSNLESGIPARFSASGSGTDFTLNIHPVEEEDTATYYCQQSNEDPYTFGGGTKLEIKGKPIPNPLLGLDST
notes: Tested as secreted protein in supernatants of MYXV-BiKE-infected RK13 or Vero cells and detected through its V5 tag; Concentration was not determined; also called huBiKE; CD138-CD16 BiKE
B1: binds.
